T1: human CD22 domain5-7-His (human, UniProt P20273 414-687)
T1 construct: also called hCD22 domain5-7-His; not shown: His tag
T1 sequence: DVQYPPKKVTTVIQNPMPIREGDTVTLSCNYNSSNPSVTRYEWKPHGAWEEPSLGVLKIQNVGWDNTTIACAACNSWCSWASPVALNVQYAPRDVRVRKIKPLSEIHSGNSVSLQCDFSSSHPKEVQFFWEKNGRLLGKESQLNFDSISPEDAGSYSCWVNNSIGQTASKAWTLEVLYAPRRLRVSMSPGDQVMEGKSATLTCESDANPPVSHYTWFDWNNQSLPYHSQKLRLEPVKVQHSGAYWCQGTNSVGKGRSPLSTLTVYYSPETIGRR

T2: rhesus monkey CD22-ECD-His protein (rhesus monkey, UniProt H9G1X2 18-686)
T2 construct: extracellular domain; also called monkey CD22 protein
T2 sequence: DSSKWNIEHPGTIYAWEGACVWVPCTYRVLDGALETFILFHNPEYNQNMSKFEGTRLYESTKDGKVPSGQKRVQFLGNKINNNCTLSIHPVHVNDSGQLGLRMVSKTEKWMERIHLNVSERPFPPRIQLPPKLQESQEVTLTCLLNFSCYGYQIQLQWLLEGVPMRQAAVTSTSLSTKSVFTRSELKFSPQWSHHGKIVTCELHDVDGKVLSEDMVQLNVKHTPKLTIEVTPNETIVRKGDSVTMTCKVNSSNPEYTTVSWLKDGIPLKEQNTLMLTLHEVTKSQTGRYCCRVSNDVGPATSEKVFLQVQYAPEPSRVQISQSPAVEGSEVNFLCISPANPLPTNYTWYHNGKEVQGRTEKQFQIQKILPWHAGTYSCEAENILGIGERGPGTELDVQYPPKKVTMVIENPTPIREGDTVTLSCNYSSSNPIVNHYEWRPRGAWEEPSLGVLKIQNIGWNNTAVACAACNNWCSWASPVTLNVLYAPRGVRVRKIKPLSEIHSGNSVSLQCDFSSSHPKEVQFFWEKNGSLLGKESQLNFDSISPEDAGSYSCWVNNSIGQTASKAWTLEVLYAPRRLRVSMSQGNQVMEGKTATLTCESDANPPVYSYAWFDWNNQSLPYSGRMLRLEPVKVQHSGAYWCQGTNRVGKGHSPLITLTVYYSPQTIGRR

T3: human CD22-ECD-His protein (human, UniProt P20273 20-687)
T3 construct: Recombinant, from HEK293E cells; also called hCD22-ECD-His; human CD22-His protein; not shown: His tag
T3 sequence: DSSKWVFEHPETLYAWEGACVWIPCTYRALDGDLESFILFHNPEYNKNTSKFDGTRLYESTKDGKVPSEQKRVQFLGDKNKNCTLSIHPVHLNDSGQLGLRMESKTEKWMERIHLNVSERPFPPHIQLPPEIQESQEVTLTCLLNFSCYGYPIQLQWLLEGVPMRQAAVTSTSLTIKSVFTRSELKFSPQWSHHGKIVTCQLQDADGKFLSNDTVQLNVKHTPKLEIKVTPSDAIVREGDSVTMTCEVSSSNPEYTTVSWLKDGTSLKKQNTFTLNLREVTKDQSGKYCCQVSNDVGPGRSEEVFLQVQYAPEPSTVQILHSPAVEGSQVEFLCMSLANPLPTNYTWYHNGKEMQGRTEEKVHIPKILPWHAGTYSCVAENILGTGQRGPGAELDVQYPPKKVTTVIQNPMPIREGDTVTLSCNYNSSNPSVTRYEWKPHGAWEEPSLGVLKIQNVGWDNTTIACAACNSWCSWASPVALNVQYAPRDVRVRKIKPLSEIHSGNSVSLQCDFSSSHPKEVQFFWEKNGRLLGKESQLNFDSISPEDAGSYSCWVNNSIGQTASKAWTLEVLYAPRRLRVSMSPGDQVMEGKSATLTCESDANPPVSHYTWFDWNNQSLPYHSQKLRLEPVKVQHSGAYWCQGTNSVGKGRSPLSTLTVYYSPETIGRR


Columns and labels:
human CD22 domain5-7-His = molecular target: T1, human CD22 domain5-7-His; experiment: ELISA, plate coated with human CD22 domain5-7-His
[1] = molecular target: T2, rhesus monkey CD22-ECD-His protein; experiment: SPR (Biacore), antibody captured on Protein A chip, rhesus CD22 in solution
[2] = molecular target: T3, human CD22-ECD-His protein; experiment: SPR (Biacore), antibody captured on Protein A chip, CD22-ECD-His in solution
Method: Sample buffer and running buffer were HBS-EP+(10 mM HEPES, 150 mM NaCl, 3 mM EDTA, 0.05% surfactant P20) (GE Healthcare; BR-1006-69). The flow-through cell was set to 25° C. The sample block was set to 16° C. Both were pretreated with the running buffer. In each cycle, the antibody to be tested was first captured with a Protein A chip, then a single concentration of CD22 antigen protein was injected. The binding and dissociation process of the antibody and the antigen protein was recorded, and finally Glycine pH 1.5 (GE Healthcare; BR-1003-54) was used to complete chip regeneration. Binding was measured by injecting different concentrations of recombinant human CD22-ECD His protein in solution for 240 s with a flow rate of 30 μL/min. The concentration started from 200 nM (see the detailed results for the actual concentration in the test) and was diluted at 1:1, making a total of 5 concentrations. The dissociation phase was monitored for up to 600 s and was triggered by switching from sample solution to running buffer. The surface was regenerated by washing with a 10 mM of glycine solution (pH 1.5) for 30 s at a flow rate of 30 μL/min. Bulk refractive index difference was corrected by subtracting the response obtained from the goat anti-human Fc surface. Blank injection was also subtracted (=double reference). For calculation of apparent KD and other kinetic parameters, Langmuir 1:1 model was used.

binding result (human CD22 domain5-7-His)	Kd [1] [nM]	koff [1] [s⁻¹]	kon [1] [M⁻¹ s⁻¹]	Kd [2] [nM]	koff [2] [s⁻¹]	kon [2] [M⁻¹ s⁻¹]	Binder
no binding	10.3	0.0014	135000	1.57	0.000386	246000	F2.205.9 (antibody, human IgG1, lambda, V domains shown, Chimeric IgG1 lambda) VH: QVTLKESGPGILQPSQTLSLTCSFSGFSLSTSGMGVGWIRQPSGKGLEWLAHIWWDDDEYYNPALKSRLTISKDTSKNQVFLKIANVDTADTATYYCARISIPYGYYDWFFDVWGTGTTVTVSA VL: QAVVTQESALTTSPGETVTLTCRSSTGAVTTRNYANWVQEKPDHLFTGLIGGTNNRAPGVPARFSGSLIGDKAALTITGAQTEDEAIYFCALWYSNHFIFGSGTKVTVLG
no binding	3.67	0.000531	144000	2.07	0.000498	241000	F1.17.1 (antibody, human IgG1, kappa, V domains shown, Chimeric IgG1 kappa) VH: QVQLKESGPGLVAPSQSLSITCTVSGFSLSRYTVHWVRQPPGKGLEWLGMIWGGGSTDYNSALKSRLSISKDNSKSQVFLKMNSLQTDDTAMYYCARPHDFDAGGFAYWGQGTLVTVSA VL: QIVLTQSPAILSTSPGEKVTMTCSASSRVNYMYWYQQKPGSSPRLLIYDTSNLASGVPVRFSGSGSGTSYSLTISRMEAEDAATYYCQQWTSYPLTFGAGTKLELKR
no binding	7.18	0.000538	74900	25.3	0.000944	37300	F1.216.2 (antibody, human IgG1, kappa, V domains shown, Chimeric IgG1 kappa) VH: QVQLQQSGPEVVRPGASVKISCKASGYAFSSSWMNWMKQRPGKALEWIGRIYPGDGDTNYSGEFKVKATLTADKSSSTAYMQLSSLTSEDSAVYFCAREGSYYSNPWYFDYWGQGTTLTVSS VL: DVLVTQTPLSLPVSLGDQASISCRSSQSIVQSNGDTYLEWYLQKPGQSPKLLIYKVSNRFSGVPDRFSGSGSGTDFTLKISRVEAEDLGVYYCFQGSHVPFTFGSGTKLEIKR
no binding	2.25	6e-05	26700	40.9	0.000223	5440	F1.267.9 (antibody, human IgG1, kappa, V domains shown, Chimeric IgG1 kappa) VH: EVQLQQSGPVLVKPGASVKMSCKASGYTFTDFYMNWAKQSHGKSLEWVGVINPYNGGINYNQKFKGKATLTVDKSSSTAYMEFNSLTSEDSAVYYCARRMEYHAMDYWGQGTSVTVSS VL: DIVLTQSPASLAVSLGQRATISCRASESVDNYGFDFIHWYQQKPGQPPKLLIYRASNLESGIPARFSGSGSRPDFTLTINPVETDDVATYYCQQSIKDPWTFGGGTKLEIKR
no binding	2.04	0.000107	52300	13.8	0.000267	19400	F1.224.1 (antibody, human IgG1, kappa, V domains shown, Chimeric IgG1 kappa) VH: EVLLHQSGPELVKPGASVKISCKASGYTFTDFNMDWVRQRHGQSLEWIGDVNPNNGGTIYNQKFKGKATLTVDKSSSTVYMDLRSLTSDDTAVYYCVRLGTSDYGEAWFISWGQGTVVTVSA VL: DIVLTQSPASLAVSLGQRATISCRASQSVSTPRYSFMHWYQQKPGQPPKLLIKYASNLESGFPARFTGSGSGTDFTLNIHPVEEEDTAAYYCQQSWAIPWTFGGGTKLEIKR
no binding	14.5	0.000545	37600	1.55	0.000162	105000	F2.99.1 (antibody, human IgG1, lambda, V domains shown, Chimeric IgG1 lambda) VH: QVTLKESGPGILQPSQTLSLTCSFSGFSLSTFPMGVGWIRQPSGKGLEWLAHIWWDDDEYYNPVLKSRLTISKDTSKKQVYLRIANVDTVDTATYYCTRANWDRWYFDVWGTGTTVTVSS VL: QLVLTQSSSASFSLGASAKLTCTLSRQHSAYTIEWYQQQPLKPPKYVMEVKKDGSHSTGDGIPDRFSGSSSGADRYLSISNIQPEDEAIYICGVGDTIKEHFVFGGGTKVTVLG
no binding	3.48	0.00127	366000	1.44	0.000607	422000	F1.250.16 (antibody, human IgG1, kappa, V domains shown, Chimeric IgG1 kappa) VH: QVQLQQSGAEQVKPGASVKMSCKASGYTFTTYPIEWMKQNHGESLDWIGNIHPYNDDTEYNEKFKGKATLTVEKSSNTVFLELSRLTSDDSAVYYCVRGDYYNSRYWYFDVWGTGTTVTVSS VL: DIVMTQSQKFMSTTVGDRVSITCKAGQNVRTAVAWYQQKPGQSPKLLIYSASTRYIGVPERFTGSGSGTDFTLTITNMQSEDLADYFCQQYSSFPLTFGTGTKLELKR
no binding	46.7	0.000883	18900	4.74	0.000232	49000	F2.173.9 (antibody, human IgG1, lambda, V domains shown, Chimeric IgG1 lambda) VH: EVQLVESGGDLVKPGESLKLSCEASGFTFSNYAMSWVRQTPDRRLEWVATISSIGSFTYYSDSVKGRFTISRDNVKSTLHLQMNNLKSGDTAIYFCARLGVYFDSWGQGTTLTVSS VL: QLVLTQSSSASFSLGASAKLTCTLSSQHSTYTIEWYQQQPHKPPKFVMEIKKDGSHYTGDGIPDRFSGSSSGADRYLSISNIQPEDETIYICGVSDMIKDQFVYVFGGGTKVTVLG
no binding	6.9	0.00138	200000	17.6	0.00539	306000	F1.172.13 (antibody, human IgG1, kappa, V domains shown, Chimeric IgG1 kappa) VH: QVTLKESGPGILQSSQTLSLTCSFSGFSLSTSGMGVSWIRQPSGKGLEWLAHIYWDDDKRYNPSLKSRLTISKDTSRNQVFLKITSVDTADTATYYCARAPPPNWDEYYFDYWGQGTTLTVSS VL: DIQMTQSPASLSASVGETVTITCRASGNIHNSLAWYQQKQGKSPQLLVHNAKTLADGVPSRFSGSGSGTQYSLKINSLQPEDFGSYYCQHFWSTPPFGGGTKLEIKR
no binding	15.1	0.000637	42100	19.5	0.000232	11900	F1.120.15 (antibody, human IgG1, kappa, V domains shown, Chimeric IgG1 kappa) VH: QVQLQQSGPELVKPGASVKISCKASGNAFSNSWMNWVKQRPGKGLEWIGRVYSEDGDTQYNGKFRDKATLTADRSTSTAYMQLSSLTSEDSAVYFCARWLIYYGTYGAMDYWGQGTSVTVSS VL: DIQMTQTTSSLSASLGDRVTISCRASQDINNYLNWYHQKPDGTVKLLIYFTSRPYSGVPSRFSGSGSGTDYSLTISNLEQEDIATYFCQQGNTLPWTFGGGTKLEIKR

Source: patent publication US20240084003A1 (SIMCERE ZAIMING PHARMACEUTICAL, published 2024)
